# B1: GhJAZ1: cotton JAZ1 protein, gene number Gh_A05G0260, sequence SEQ ID No. 4; prokaryotically expressed with His tag, about 30 KD (protein)
# chain: MSSCSESTAMKPARSPEKPSFAQTCNLLSQYLKEKGSFGDLSLGMTCNVEANGTPVVPPPTMNLFPLNDKSDDVCGRNGGNPKNLTSMDLFPQQAGLASKDDSPNKLEPQTAPMTIFYGGQVIVFNDFPANKAKEIMLLASNSSSQSNNSFNPIPFTSSIARSPIESSIGVPPTSKPVHPAQRAVPGDLPIARRASLHRFLEKRKDRITAKAPYQINNSAAAPSLSGDNKSWLGLAAQSP
# modifications: His tag
# notes: prokaryotically expressed with His tag, about 30 KD
# Legend:
# [1] = target: T1, ATF domain of uPA (Homo sapiens, UniProt P00749); test: Yeast two hybrid with ATF domain of uPA; assay type: binding
# T1 construct: expressed in transfected cells
# Excerpt: […]
# In order to explore how GhJAZ1 enters cancer cells, we cloned the genes of most tumor surface receptors, including uPAR (NCBI database accession number of NM_002659.4), CCK1R (NP_000721.1), CCK2R (NP_001350481.1), HER2 (NP_004439.2), GRPR (NP_005305.1), MUC1 (NP_001358649.1), VEGFR1 (NP_002010.2), Insulin receptor (NM_000208.4), NTR (XM_011528827.2), PSMA (XM_017017432.1), TFR1 (NM_001128148.3), TFR2 (NM_003227.4), PEPT1 (NM_005073.4), APN (NM_001150.3). […] We detected the interaction of GhJAZ1 with uPA (as the ligand of uPAR, NCBI database accession number of NP_002649.2) and uPAR by yeast two hybrid (the steps of the experiment as Example 3). […]
# [2] = target: c-Myc (Homo sapiens, UniProt P01106); test: Bimolecular fluorescence complementary experiment with c-Myc; assay type: binding; set-up: with the full length of c-Myc and NMYC, respectively; expressed in transfected cells; host or cells: yeast Y2HGold; conditions: bimolecular fluorescence complementation, YFP signal in the nucleus of tobacco
# c-Myc, sequence (P01106 whole entry): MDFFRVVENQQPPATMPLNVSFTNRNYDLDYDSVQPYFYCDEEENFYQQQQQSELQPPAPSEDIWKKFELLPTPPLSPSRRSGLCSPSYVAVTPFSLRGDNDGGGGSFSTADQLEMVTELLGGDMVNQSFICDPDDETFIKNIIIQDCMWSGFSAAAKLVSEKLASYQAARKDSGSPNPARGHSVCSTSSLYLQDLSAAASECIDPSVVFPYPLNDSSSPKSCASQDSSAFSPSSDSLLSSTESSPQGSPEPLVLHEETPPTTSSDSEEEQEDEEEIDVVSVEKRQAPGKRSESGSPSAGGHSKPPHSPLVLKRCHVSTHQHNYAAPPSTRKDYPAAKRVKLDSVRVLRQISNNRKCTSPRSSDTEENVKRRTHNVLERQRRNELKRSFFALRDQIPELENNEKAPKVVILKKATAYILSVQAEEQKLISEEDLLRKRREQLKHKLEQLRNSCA
# Excerpt: GhJAZ1 (SEQ ID No. 39) was subcloned into pUC-SPYNE vector (Song, Yun, et al. “BIN2 negatively regulates plant defense against Verticillium dahliae in Arabidopsis and cotton.” Plant Biotechnology Journal (2021)) between the BamHI and XbaiI cleavage sites by the bimolecular fluorescence complementary experiment to construct pUC-SPYNE-GhJAZ1. c-Myc (NCBI accession number: NM_002467.6) was subcloned into pUC-SPYCE vector (Song, Yun, et al. “BIN2 negatively regulates plant defense against Verticillium dahliae in Arabidopsis and cotton.” Plant Biotechnology Journal (2021)) between BamHI and XbaiI cleavage sites to construct pUC-SPYCE-c-Myc. […] Testing of inhibitory effect of GhJAZ1 protein on tumor cells
molecule,measurement,setting,value
B1,interaction with the ATF domain of uPA,[1],interacts
same,interaction with c-Myc,[2],interaction
